Laboratory results reported in patent US11123408B2, “Compositions and methods for treating nonsteroidal anti-inflammatory drug (NSAID) associated coagulopathy, thrombocytopenia, glanzmann's thrombasthenia, and/or thrombosis” (YALE UNIVERSITY, priority 2011, dated 2021).
“Also recorded” adds a separate entry of the source.

How the values were obtained:
[1] = system: platelets exposed to NSAIDs; experiment: LTA in platelet-rich plasma from an individual who had consumed ibuprofen; assay type: cell-based, human; conditions: 20 nM NPP4; 3 μM ADP; donor took 800 mg ibuprofen 12 hours before
Procedure: (§1) Platelet aggregation was determined by measuring the change in light transmittance of stirred PRP over time after addition of various agonists. Prior to each experiment the aggregometer was standardized to reflect 100% and 0% light transmittance with PPP and PRP, respectively, from the donor whose platelets were used in each specific experiment. 500 μL PRP was added to cuvettes containing a magnetic stir bar and allowed to pre-warm to 37° C. in the aggregometer wells for 3 minutes prior to initiating aggregation reactions which were then conducted at 37° C. Aggregation reactions were initiated by direct addition of agonists and/or enzymes to warmed, stirred PRP, and were monitored for an increase in light transmittance for 10 minutes. The increase in light transmittance is directly proportional to the amount of aggregation and is amplified and digitized into a computer (HP Compaq, Hewlett-Packard, Palo Alto, Calif.) with the AGGRO/LINK8 for Windows software (Chrono-Log Corporation, Havertown, Pa.) to generate aggregation curves. […] The platelet aggregometry experiments for all concentrations of MRS 2395 (including the 0 μM point) were conducted with the plasma adjusted to a final concentration of 10% DMSO to solubilize the inhibitor.
NPP4 rescues platelets exposed to NSAIDs. […]

[2] = system: platelets in platelet rich plasma; experiment: Lumi aggregometry (extracellular ATP, dense granule release) simultaneously with LTA; assay type: cell-based, human
Procedure: Whole blood from healthy voluntary donors was collected in accordance with an IRB-approved protocol into blue top vacutainer tubes containing 3.2% sodium citrate. Blood was centrifuged at 1000 RPM for 10 minutes at room temperature to collect platelet rich plasma (PRP). PRP in the supernatant was then transferred to fresh tubes, and the remainder of the specimen was centrifuged at 4000 RPM for 10 minutes to obtain platelet poor plasma (PPP). PRP was adjusted to a final platelet count of 250×10^6 platelets/mL with autologous PPP for use in aggregation studies. Potential donors were excluded if there was a history of a bleeding disorder or current anticoagulant use and donors were instructed to avoid NSAIDs for at least 7 days prior to donation. Approval for the human subjects involved in this research was sought and granted by the Committee for the Protection of Human Subjects, Dartmouth-Hitchcock Medical Center, where these studies were conducted in accordance with the Declaration of Helsinki.
Light transmission (i.e., optical) and lumi aggregometry were performed on up to four samples from the same individual simultaneously with a Chrono-Log Model 700 Whole Blood/Optical Lumi Aggregometer (Chrono-Log Corporation, Havertown, Pa.) using procedures provided by the manufacturer that are briefly summarized here.
as §1
In a subgroup of experiments, lumi aggregometry was used to assay the levels of extracellular ATP simultaneously with LTA. Lumi aggregometry measures ATP in the extracellular space over time using a sensitive luminescent assay employing firefly luciferin-luciferase (CHRONO-LUME™ reagent, Chrono-Log Corporation, Havertown, Pa.). ATP binds to luciferin-luciferase and generates light that is then amplified by a high-gain photomultiplier tube in the lumi aggregometer and is measured simultaneously with the optical change in light transmittance caused by platelet aggregation. In experiments in which lumi aggregometry was performed, 450 μL of PRP was transferred to cuvettes containing magnetic stir bars and allowed to pre-warm to 37° C. in the aggregometer wells for 3 minutes. […] Reactions were initiated by the addition of agonists and/or enzymes to warmed PRP and CHRONOLUME′ reagent and were monitored for light generation. […]

B1: NPP4: soluble recombinant extracellular domain of human NPP4 (NCBI AAH18054.1, residues 1-407 of SEQ ID NO:1), expressed in insect cells (protein, listed as Homo sapiens)
chain: MKLLVILLFSGLITGFRSDSSSSLPPKLLLVSFDGFRADYLKNYEFPHLQNFIKEGVLVEHVKNVFITKTFPNHYSIVTGLYEESHGIVANSMYDAVTKKHFSDSNDKDPFWWNEAVPIWVTNQLQENRSSAAAMWPGTDVPIHDTISSYFMNYNSSVSFEERLNNITMWLNNSNPPVTFATLYWEEPDASGHKYGPEDKENMSRVLKKIDDLIGDLVQRLKMLGLWENLNVIITSDHGMTQCSQDRLINLDSCIDHSYYTLIDLSPVAAILPKINRTEVYNKLKNCSPHMNVYLKEDIPNRFYYQHNDRIQPIILVADEGWTIVLNESSQKLGDHGYDNSLPSMHPFLAAHGPAFHKGYKHSTINIVDIYPMMCHILGLKPHPNNGTFGHTKCLLVDQWCINLPEA
For B1, the “effect on ADP-induced aggregation of NSAID-exposed platelets” value [1] was “normalization of ADP-induced aggregation”, the “time to granule release” value ([2]; 100 nM NPP4 with 40 μM Ap3A) was roughly 1.5 min and the “platelet aggregation and dense granule (ATP) release, enzyme with Ap3A (qualitative)” value ([2]; 100 nM enzyme with 40 μM Ap3A) was “ATP release and platelet aggregation were simultaneously seen; also recorded: strong platelet aggregation and dense granule release”.
